The supplement of paper PMC9170038

Tests used:
[1] = system: MS2 coat protein; assay: apparent KD of MS2 coat protein, switch OFF state (with FMN for OFF switches, without FMN for ON switches); designed switch direction (-1 OFF switch, 1 ON switch): 1; higher = weaker reporter binding; details: FMN input: 0 or 200 uM; Eterna round: R93 (includes R88 designs)
Outline: (§1)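 The buffer was 100 mM Tris-HCl pH 7.5 with 80 mM KCl and 4 mM MgCl2, used without or with constant ligand. In it, RNA switches transcribed on-chip from Illumina sequencing clusters were titrated with SNAP-549-labelled MS2 coat protein in twofold steps from 0.7 or 1.5 nM to 3 µM. Apparent KD for each design is the median of its normalised cluster binding-curve fits.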

[2] = system: MS2 coat protein; assay: apparent KD of MS2 coat protein, switch ON state; designed switch direction (-1 OFF switch, 1 ON switch): 1; higher = weaker reporter binding; details: FMN input: 0 or 200 uM; Eterna round: R93 (includes R88 designs)
Outline: as §1

Row | Sequence | apparent KD of MS2 coat protein [1] | apparent KD of MS2 coat protein [2]
1 | AUAAAACAUGAGGAUCACCCAUGUCCGACAAAUCAAGGAUAUGAGAGCCUAACCAGGCUGUUAGAAGGUGAAAGAU [Riteat] | 192 nM | 229 nM
2 | AUAAAAGAAGCGAAGGAUAUCCAAAGGACCACAUGAGGAUCACCCAUGUAAAGAAAGAAAAAAUGGGAGAAGGUCGCAAAGAAUA [73%, More Fisker Same State 2, D3, 7] | 97.4 nM | 74.9 nM
3 | AUAAAAUACUGUGAGGAUAUCCAUAAUAAAACAUGAGGAUCACCCAUGUGUAGAUAAUAAUAAUGGGAGAAGGCACAUAAUAAAU [SS2 M41] | 27.6 nM | 24.2 nM
4 | AUAAAUAAAAGCGAGGAUAUCCAAAAAAAAACAUGAGGAUCACCCAUGUAAAAGAAAAUAAAAUGGGAGAAGGCGCAAAAUAAAU [SS2 M 9] | 7.54 nM | 21.2 nM
5 | AUAACAACGUAUGAGGAUAUCCUUAAUAAAACAUGAGGAUCACCCAUGUGAAUAAAAUAACAAUUGGAGAAGGCAUACGUACAAU [SS 2 M 52] | 20.8 nM | 15.4 nM
6 | AUAACACAUGAGGAUCACCCAUGUAGAUCCACGUCAGGAUAUGCAAAGAAAAUAAACAAAGCAGAAGGGACAAUAA [SS 1 Tesla 1] | 49.6 nM | 47.3 nM
7 | AUAAUAAUAAGGUAGGAUAUGCUAAAGUAAACAUGAGGAUCACCCAUGUAAAGAAAAAAACUCAUGUAGAAGGGCCAGAAAUAAA [moonwalk 4] | 71.5 nM | 80.1 nM
8 | AUUCCAACUAGUCAGGAUAUCAGGCGUAAGACAUGAGGAUCACCCAUGUACUUAGUACAAGUAACUGAGAAGGGACAGGGUGUAA [JR_SS002_Sub408] | 25.3 nM | 20.3 nM
9 | CAUCAUGCGCCUAAGGAUAUGUCUCACAAGACAUGAGGAUCACCCAUGUAGAAUAAAUAAACGAUGCAGAAGGUGGAGUGCAUGC [Vetimaor] | 361 nM | 56.7 nM
10 | CGAAAGGAGAGAGAGGAUAUCCAAAGGAAAACAUGAGGAUCACCCAUGUAGAAGGUAGGAGAUUGGGAGAAGGCUCAAGAUAGAG [salish99-ss2-145] | 73.2 nM | 29.5 nM
11 | CGAAGACAUGAGGAUCACCCAUGUGGGAAUAUGGGAGGAUAUACAAAGACGAGAGUCAGAGUAGAAGGCCUAGGAU [salish99-ss1-105] | 78.7 nM | 29.5 nM
12 | CGCAGGAAGAGAGAGGAUAUCCAAAGGAAAACAUGAGGAUCACCCAUGUAAAAGGUAGGAAAUUGGGAGAAGGCUCAAGAGAGAG [salish99-ss2-100] | 40.9 nM | 34.3 nM
13 | CGGAGACAUGAGGAUCACCCAUGUGAGAAGAGGCGAGGAUAUCGAAAGAAAGAAGAGAAACGAGAAGGCGCGAGCC [salish99-SS1-080(!)] | 31.4 nM | 32.1 nM
14 | CGUGAACAUGAGGAUCACCCAUGUGAAAAACAUAGAGGAUAUGUCACAUGAGUGUAAAAGACAGAAGGCUAUCGUG [Mod 1 of Round 1 starryjess' Mod pf Nando] | 152 nM | 98 nM
15 | CUUAGACAUGAGGAUCACCCAUGUCGAACAAACAAAGGAUAUGGGAGCCGAAGAAGGCUAUUAGAAGGUUGCAAAA [Isesinbe] | 28.6 nM | 26.4 nM
16 | GAAAAAAAAAGGCAGGAUAUCCAAAAAAAAACAUGAGGAUCACCCAUGUAAAAAAAAAAAAAAUGGGAGAAGGGCCAAAAAAAAA [Mat - Same State 2 - Mod - 151] | 35.2 nM | 25.5 nM
17 | GAAAAACAUGAGGAUCACCCAUGUAAAAAUAUGGGAGGAUAUAGAAAGACGAAAGUCAAACUAGAAGGCCUAAAAG [Garnet 1] | 63 nM | 28.1 nM
18 | GAAAAACAUGAGGAUCACCCAUGUAAGAUAAACACAGGAUAUGCGAAAAGAAAGAAAGAAGCAGAAGGGUGAAAAG [Mat - Same State 1 - Tesla mod - 42] | 43.8 nM | 15.2 nM
19 | GAAAAACAUGAGGAUCACCCAUGUAGAAAUAUGGAAGGAUAUACAAAGACGAAAGUCAAAGUAGAAGGUCUAAAAG [Mat - Same State 1 - Eli mod - D13] | 19.8 nM | 15.5 nM
20 | GAAAAACAUGAGGAUCACCCAUGUAGUAAUAUGGAAGGAUAUACAAAGACGUAAGUCAAAGUAGAAGGUCUAAAAG [Garnet 100] | 24.7 nM | 21.6 nM
21 | GAAAAACAUGAGGAUCACCCAUGUGAAAACUUGGGAGGAUAUACUAAGACGAAAGUCGAAGUAGAAGGCCUAAAAG [Same State 1.4j (Mat - Mod of Eli - )] | 89.1 nM | 19 nM
22 | GAAAAACAUGAGGAUCACCCAUGUGACAACAUGGGAGGAUAUACGUGGACGAUAGUCAAAGUAGAAGGCCUAAAAG [Garnet 64] | 18.4 nM | 71.7 nM
